We go through four molecules from patent US20180364250A1 (published 2018).

Like-named read-outs stand apart in the source and are kept apart here.

The target of one assay is K63 Ub2. Description: fluorescence competition with 5 nM Atto532-Ub(S20C) and 600 nM tSR.
The next assay concerns the target K48 Ub4. Described as above.
Another assay deals with K11 Ub2. The assay is described as above.
Assay [1] deals with T1, Ubiquitin (free, untagged) (UniProt P0CG48 1-76). Briefly: competition.
The target in assay [2] is T1, Ubiquitin (free, untagged).
Assay [3] deals with T1, Ubiquitin (free, untagged). Briefly: fluorescence intensity.

B1: tSR (designed binder)
chain: MPSSHHHHHHSSGLVPRGSHMTEEEQIAYAMQMSLREAGGGSDLLCKKGCGYYGNPAWQGFCSKCWREEAHKCAAERAAAE
As for B1, the inhibitory constant (Ki) with K63 Ub2 is 4.3 µM; in the assay with K48 Ub4, 4 µM; with K11 Ub2 it was 4.2 µM.

B2: tSR chimeric polypeptide sensor (designed binder)
chain: B1 chain
In assay [1], B2 returned a Ki of 4.3 µM.

B3: Atto532-tagged IsoT^ZnF (S227C) (designed binder)
chain: MPSSHHHHHHSSGLVPRGSHMKQEVQAWDGEVRQVSKHAFSLKQLDNPARIPPSGWKCSKCDMRENLWLNLTDGSILCGRRYFDGCGGNNHAVEHYRETGYPLAVKLGTITPDGADVYSYDEDDMVLDPSLAEHLSHFGIDMLKMQK
modifications: Atto532 fluorophore on the Cys of S227C (the bold C of the 2nd table)
In turn, B3 came in with a Kd in assay [2] of 8.4 µM.

B4: Atto532-tagged tIV L1 Cys (designed binder)
chain: MGSSHHHHHHSSGLVPRGSHMKQEVQAWDGEVRQVSKHAFSLKQLDNPARIPPSGWKCSKCDMRENLWLNLTDGSILCGRRYFDGSGGNNHAVEHYRETGYPLAVKLGTITPDGADVWSYDEDDMVLDPSLAEHLSHFGIDMLKMQKGSCAAAEEAELDLKAAIQESLREA
modifications: Atto532 fluorophore on the Cys of linker 1 (the bold C of the 2nd table)
In assay [3], B4 yielded a Kd of 0.587 µM.

As a reminder, the Ki is the dissociation constant of the complex between target and ligand, obtained from inhibition or displacement. Low readings indicate a stronger hold on the target, high ones a looser hold on the target. For orientation: Kd means the free concentration of one partner at which half of the binding sites on the other are occupied at equilibrium, for simple one-to-one binding. Read a high Kd as a looser complex.
